This is an account of results in the DeepSol protein solubility set.

The nature of this data set: soluble on expression in E. coli; label from the status in PepcDB or PDB records.
With “MSLTEKKCTVMLSKFKRNKHQQHLAQLPKISQSVDDVDFFYAPADFRETLLEKIASAKQRICIVALYLEQDDGGKGILNALYEAKRQRPELDVRVLVDWHRAQRGRIGAAASNTNADWYCRMAQENPGVDVPVYGVPINTREALGVLHFKGFIIDDSVLYSGASLNDVYLHQHDKYRYDRYHLIRNRKMSDIMFEWVTQNIMNGRGVNRLDDVNRPKSPEIKNDIRLFRQELRDAAYHFQGDADNDQLSVTPLVGLGKSSLLNKTIFHLMPCAEQKLTICTPYFNLPAILVRNIIQLLREGKKVEIIVGDKTANDFYIPEDEPFKIIGALPYLYEINLRRFLSRLQYYVNTDQLVVRLWKDDDNTYHLKGMWVDDKWMLITGNNLNPRAWRLDLENAILIHDPQLELAPQREKELELIREHTTIVKHYRDLQSIADYPVKVRKLIRRLRRIRIDRLISRILEGHHHHHH”, the “soluble on expression in E. coli” value is recorded as “not soluble”. The value for “GMSIYNSIGKQYSQTRVPDIRIVNAIINLLNLPKGSVIADIGAGTGGYSVALANQGLFVYAVEPSIVMRQQAVVHPQVEWFTGYAENLALPDKSVDGVISILAIHHFSHLEKSFQEMQRIIRDGTIVLLTFDIRLAQRIWLYDYFPFLWEDALRFLPLDEQINLLQENTKRRVEAIPFLLPHDLSDLFAAAAWRRPELYLKAEVRAGISSFALANQDLVEKGLELLTADLNNGEWIRKYGEIHHLQEIDIGYRFIYTTLDK” was “soluble”; that for “RDLLEQSLPDDIEEEIEKIICSESMVKGVRRIRTRNIGNYYAVEADILMDGGLSVALSHAATQRVEKLLRGRYGQPTHIVIHVEPFS” was “not soluble”.

Regarding “MGSDKIHHHHHHGCDREEDERFPSGHHDPIEGDGEMVPINVKVDGVDEFPGGAVTRSGEILTKIVQPLDSTYDSGYDVETTIESLLPVNPVQTRGNMANMQFRVVAYKNNSITAANYAGTAVYSTNASGIASIVANTATPAAVSGQWVLRPGTYAFVFYSYGTNSAPAALSGNWSTTVTHNQDFMLCQKTGVDVKADASGQCLLSGISFSRQCAQLQLCVVAKEFNNNTVQQCAATISGLSNSPVTWNASQTTLPVTGTSGTLNVAWTNPNATTVNSNVYKVLPQTNRTLTIKFTTLKIGNGQMNNAITVSATSRIFSAAGNYKITVSIVPNYISVRSYKWARGNLYKSGSNFYFEASQSNYHGGATEGGFIGWNTLDIGVGKYNSGNYSTANDPCYQVVPPGTWETPSDGQLQDLINAGVTYSGSPKGFWFGGNNGVFLLALGSRDQSSTTINNTISKNGAWAFYWSRTPSGKTAKGLNAMQGNNSAGIDNSWARPDGRTIRCVKR”, the “soluble on expression in E. coli” value is reported as “not soluble”.

Consider “HIKVGFSPEKLQPYTQLPSDFNEFWNKTKAEAARFPLTYTKEYVEKYSTDKIDCYLIRLQLNKQSQCIYGYLFYPKAEGKYPVVLCPPGAGIKTIKGPMRHKYYAEEGCIRFEIEIHGLNPELDEDTFGEISRAFSSRENGYLVNGLDSRENYYMKRVYLACVRSIDLLTSLPEWDGKNVIVQGGSQGGALALITAGLDKRVTACVANHPALSDMAGYKAGRAGGYPHLFKNTVDMDTPAKMKTLAYYDVVNFAKQITVPVYMTWGFNDNTCPPTTSYIVYNVLNCPKEALITPVNEHWTSEDTEYGHLLWIKKHLK”, for which the “soluble on expression in E. coli” value was “not soluble”. Turning to “MHSDEEIFKDTTTKALLQLLKKDIDFHEYCYQEIFPRGKEIKMNDNKNFKIYLVESGYFAYCLKNEYGDFGIISFVGGEIAINLIPLIKEEPEDAFLRCLTQVRCWVLDPDFVGRVLDENNQKAKFLLSNLLYTRKVYFKASKRTFMKKELRIRACLKEIGLYMGRVTKDKDFILPDEINNSILAQYANTTREYTNIIVLKLRKEGILDDSHKPWVIKKIDEL”, the “soluble on expression in E. coli” value was “not soluble”. For the sequence “GAFGWEQDRGAPFSGRSPRILTRMTDAPRPTAGADAPARPPAAPLVAPNFITEIIERDLEAGKYPRVVTRFPPDPSGYAHLGHVFASLLDFNTARQYGGQFNLRMDDTNPELARQEYVDSIADDLKWLGLDWGEHFYYASDYFDRYYAYAEQLIRQGDAYVESVSPEELSRLRGNATTPGTPSPYRDRSVEENLDLLRRMKAGEFADGEHVLRAKIDLTAPNMKLRDPVLYRIVNKPHFRTSDEWHIYPAYDFEHPLQDAIEGVTHSMCSLEFVDNRAIYDWLMEKLNFDPRPHQYEFGRRGLEYTITSKRKLRELVQAGRVSGWDDPRMPTLRAQRRLGVTPEAVRAFAAQIGVSRTNRTVDIAVYENAVRDDLNHRAPRVMAVLDPVKVTLTNLDGEKTLSLPYWPHDVVRDSPDGLVGMPGGGRVAPEEAVRDVPLTRELYIERDDFSPAPPKGFKRLTPGGTVRLRGAGIIRADDFGTDEAGQVTHIRATLLGEDAKAAGVIHWVSAERALPAEFRLYDRLFRVPHPEGENADVEDDSAGPAEHEAEPGAGQETAPVSQGFMRYLTPDSLRVLRGYVEPSVAGDPADTRYQFERQGYFWRDPVELERVDSREDALVFGRIITLKDTWGKQGGGTQQKAEGKKRPSTKGRGPDEVRGEGSSSPAKAHAPKAQPLTPEQDAEFTRLLGLGASEGDARTIARDPALLAFVGGAAPGDTFAQVASWTVNELVAGLRAGEVKVRAADLAPLAEGVASGQLSARIAREALARAAASGDAPLTIIEREGLNAGLSAEALQQVVAQVIAANPDKAEAYRGGKTALLGFFTGQVMRATAGKADPQALAAALKDALA”, the “soluble on expression in E. coli” value is recorded as “soluble”.

“MKKPIEFYLSGDRVYSTREKAINQLYNNRGYGELKGDKLFLSLIEAAYLTEKGWIKVVDKDKELKFDDLMKLGKSRDEDFDIKYIVYKDLRDRGYIVKSALKFGSHYRVYRKDAEHSDWLIWVLRENQRLSPNDITARARVAHGVRKNMVLAIVDEDGDVVYYKVEWIKF”: the “soluble on expression in E. coli” value is listed as “soluble”.

For the sequence “MAKDPRYVGNLPKIGIRPTIDGRRKGVRESLEETTMNMAKAVAKLLEENVFYYNGQPVECVIADTCIGGVKEAAEAAEKFAREGVGVSITVTPCWCYGTETMDMDPHIPKAVWGFNGTERPGAVYLAAVLAGYNQKGLPAFGIYGKDVQDAGDTNIPEDVKEKLIRFAKAGLAVAMMKGKSYLSIGSVSMGIAGSVVQEDFFQNYLGMRNEYVDMSEFVRRIELGIYDKEEYERALKWVKENCKVGPDNNRDGFKRTEEQKEKDWEISVKMALIARDLMVGNKKLEEMGYGEEALGRNAIVAGFQGQRQWTDYFPNGDFMETILNSSFDWNGKRAPYIFATENDNLNGISMLFGYLLTNTAQIFADVRTYWSPEAVKRVTGYTLEGRAANGIIHLINSGAAALDGTGEQTKDGKPVIKPYYELTDEDIKKCLEATQFRPASTEYFRGGGYSTDFLTKGGMPVTISRLNIVKGLGPVLQIAEGYTVDLPEEVHDVLDKRTDPTWPTTWFVPNLTGEGAFKDVYSVMNNWGANHCSISYGHIGADLITLASILRIPVNMHNVPEEKIFRPDAWSMFGTKDLEGADYRACKKLGPIYK”, the “soluble on expression in E. coli” value is “soluble”.

On to “SNTRNFVLRDEDGNEHGVFTGKQPRQAALKAANRGSGTKANPDIIRLRERGTKKVHVFKAWKEIVDAPKNRPAWMPEKISKPFVKKERIEKLE”, for which the “soluble on expression in E. coli” value is recorded as “soluble”. Turning to “MHIRLTLPFYIYPFHFFRGSKMVKIPKSHPRYWSLLYREKIIRGMEEGITAKAGLIAHGRGEAFDYLIGERTIPPAEEAMKVAVAKLLLANHPVISVNGNVAALVPRETVELAKVTRAKLEVNLFYRTEERVKKIAEVLKKTGAKEVLGLNPTKRIPGLESERGKVEEDGIWKADVVLVPLEDGDRTEALVRMGKFVITVDLNPLSRSARMANVTIVDNIIRAYPRMIELAKEMRDYSREELEEIVNNYDNNKILSEVLLHIRRRLEELAKEGLEHHHHHH”, the “soluble on expression in E. coli” value is “not soluble”.

Turning to “MGSDKIHHHHHHMLNYSLRPENRGKNLESSWQYMFKTYPYLKPWIDSLKQNQALKDTFIYSPDHVKLHAYYVASSRPTAKTAVIVHGYTDNAIRMMMIGYLYNKKLDFNILLPDLRDTGLSGGNAIQMGWLDRKDVTQWMEVANRIYGDSTSMVVHGISMGAATTMMVSGEPQPDYVKCFVEDCGYTSVWDQFSKELKAQFGLPQFPLMYTADWLCQLEYGWGFKEASALKQVARCHLPMFFIHGDKDDYVPTWMVYKLYEAKPQPKALWIVPEADHAHSYLFNTEEYTQKVKAFVDKYIQ”, the “soluble on expression in E. coli” value is reported as “not soluble”.

For “MAHHHHHHMAFTGPNPSIWVGGLDPDLQEQKLYDYFVRIGPVTSVRVCVDSATQKSLGYGYVNFQDPADAEKALDQAGSKLGSRYLRIAKIQRDPSKRRSGVNNILVKKLPKSVDTYALKEMFSKFGRLTAIGLACDEKGESRGYARISFEREESAVDAVREMDGMEMDGQAIVVERYQAQHRDELLKQFTNLYVKNLDPAVTDEKLRAFFAKYGEVSSAKVRDLGAAQSEAGLGYVAFQKHENAARAVEELNGKECEIAKAGSPLDVSRFRSREERQRDRERQRRERAQQHSKYPNLYVKGFDDTVTSERLEELFQRYGETVSVTVMMDKETGVSRCFGFVSMKDQNAASQAIQELNGSTFLSPRPLFVTYALRKDARRQNLEERSKQFRVRQNPMGGPGMGAMPPIGFMGPQMFNNVNMPFMNPRVPIMPMNGMNGIGGMNGMGGMNGVGGVGGMGGMGGMGGMGGMGGMGGMGGMGSMGGMGGMARPMAPNAMSQMRSRPMPQKPPMQSLMPQQHQQAPPQGQNLAAVLANLNPEQQKNVLGERLYSYIVRSHPSVAAKITGMLLEMDNAEILNMLDSPTMLDSKIAEAQDVLNRHMSV”, the “soluble on expression in E. coli” value is recorded as “soluble”. The value for “VKTGLYSLLGLIMRSALIDNFIESLNRSKYFHVVCSDPKPICNFIEKNLVRGATIVNAKGSFTGDNKYIILTVLSPSQAVKLRNFIKENSPGAFLLISNTSEIIGKGFHSV” was “not soluble”; that for “MGNMWGKNRGAVERFQTRREALFDDFKSRSAPASLVNNPRIVKGNETAEQIETTFNEILKLDLIALKSALQTDKYNAYTVLCAFVWRAIDVNSEINCITEVIREAFNTAEALDDNYAQTGEKGQLFGLPFSVKSNFYMENYDVTVGLAKLLEQPKTTTCPMVQFLSDQGAVPFCLTNVPQGLLSYVSSNPIYGTTKNPWDFSRTPGGSSGGEAALLAAGGAAFGIGSDLAGSLRIPAAFCGLVTLKPTQDRLCVTDTHGGLPGRGRLGLSFGFYTRSVKEQEFLLGLIVGRSEYLELCPMSSPAKLEKHIEKDQKLVIGWFVDDGFNPVVPSNRRAVEETVKSLQAKGHQVVELKLADVSEEFPPFAVADMLFRNVMPDNGAYMSEMYAGEQYDEHMKLFIRLVCLKQNFLVSFLLRYGVMPFAKLALSKRLACIGSAYNSDLAACRQNQENTDSYKLQWIRYWKSKKIDALICPSFITPAQPFEYPAQLSNGAFITGLFNMLDVPAGVVPVSPVNQKDVDQLIDGFSTEGDLLLKKQREAARGTTGLPNAVQVVTLPNCEEMCLRVMRLVEESAEGVQRLQWRVGASAAPIDVENTPAGVVSSLEHFERVNLLH” was “not soluble”.

“LLQHAHNPVNWYSWSPEAFSKAKSEDKPIFLSIGYSTCHWCHVMERESFEDDDVAEVLNRSFVSIKVDREERPDIDEIYMNVCTAITGSGGWPLTIVMTPEQKPFFAGTYIPKNNRMGMQGLISLLENIEYQWKENQNELVEIGDKIVSSLNKDRKT”: the “soluble on expression in E. coli” value is listed as “not soluble”. The value for “MGSDKIHHHHHHMKKYSLTPAMLEVCKEYNFFSDVSGFMPLTSENIKEIKIGKKFAYSHQDNNKPTHQKLSKIIFENFLSNIPLNQSAIAYVKKKSYFDFIEPHRNNYFFLRIDLKDFFHSISEDLLKRTLSDYFSSESLSETIKQSNIDAIFTFLTVNLKSDSSNVKFLDKKILPIGFPLSPNLANIVFRKTDLLLEKLCDMHGVTYTRYADDMLFSSRGIMEKNLLFRKNNNYKKPYIHSDNFLSEIKYLVSIDGFFINHNKTIKSVNTLSLNGYTISGTNFPDIEGKIRLSNKKTKIIEKVIHEININPDDKVTFEKCFKKEFPKPKYEKNRDNFINNLCTIKINQKLLGYRSYLISIIKFNNKFNCISESSEDKYNTLLSKIENVIKKRIK” was “not soluble”; that for “YHKLRLAIKEICKTDGIPNIKWGMYIAFGEKLLKSYLKMKAGSASSDMIAEYINNAISAFSSRTGISQETAQKIADFITSNY” was “soluble”.
